Consider six molecules from paper PMC7264223, “Tetrameric architecture of an active phenol-bound form of the AAA^+ transcriptional regulator DmpR” (Nature Communications, 2020).

First the molecules themselves.
T1: DmpR (Pseudomonas putida, UniProt Q7WSM9)
T1 construct: DmpR^WT, full-length (1–563), N-terminal 6 × His tag
T1 sequence (Q7WSM9 1-563): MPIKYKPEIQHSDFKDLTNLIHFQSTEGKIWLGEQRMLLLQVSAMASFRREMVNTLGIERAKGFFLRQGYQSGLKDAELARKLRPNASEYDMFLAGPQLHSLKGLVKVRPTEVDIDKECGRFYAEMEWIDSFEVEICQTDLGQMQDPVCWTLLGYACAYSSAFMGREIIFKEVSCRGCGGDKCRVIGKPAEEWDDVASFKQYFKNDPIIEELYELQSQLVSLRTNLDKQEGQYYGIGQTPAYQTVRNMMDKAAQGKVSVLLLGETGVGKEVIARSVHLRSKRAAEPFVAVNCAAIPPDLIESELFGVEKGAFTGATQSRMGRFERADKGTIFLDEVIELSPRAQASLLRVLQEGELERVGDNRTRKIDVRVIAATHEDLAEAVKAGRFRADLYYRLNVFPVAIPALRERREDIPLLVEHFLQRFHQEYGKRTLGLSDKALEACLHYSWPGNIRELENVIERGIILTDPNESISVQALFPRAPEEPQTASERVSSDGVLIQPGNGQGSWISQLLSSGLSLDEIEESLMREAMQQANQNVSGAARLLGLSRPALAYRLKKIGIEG

B1: DmpR^WT, full-length DmpR (di-methyl phenol regulator) bearing an N-terminal 6 × His tag (natural protein, Pseudomonas putida KCTC 1452, UniProt Q7WSM9 1-563, looked up)
chain: T1 sequence (Q7WSM9 1-563)
notes: DmpR (CapR) of Pseudomonas putida KCTC 1452, codons 1-563 (wild type), GenBank AAP46187.1; 66 kDa with tag; Mixture of dimers and tetramers without phenol, predominantly a tetramer with phenol; Vector pProEX HTa; also called CapR; wild type DmpR; source: E. coli BL21-CodonPlus (DE3)-RIL, purified (His-Trap HP, Superdex 200); not shown: His6, N-terminal, kept
B2: σ^54_((1–119))-CPD, N-terminal residues of σ^54 (aa 1–119) fused to a C-terminal cysteine protease domain (CPD) (domain or fragment, UniProt P0A171 1-119, looked up)
chain: MKPSLVLKMGQQLTMTPQLQQAIRLLQLSTLDLQQEIQEALESNPMLERQEDGEDFDNSDPMADNAENKPAAEVQDNSFQESTVSADNLEDGEWSERIPNELPVDTAWEDIYQTSASSL
notes: also called N-terminal peptide of σ^54; σ^54 peptide; source: E. coli BL21-CodonPlus (DE3)-RIL, purified (His-Trap HP, Superdex 200); not shown: CPD (cysteine protease domain), C-terminal, kept

Values joined by “and” are separate entries in the source; they are usually repeats but may differ in a detail not shown here. Identical values can stand only once.

Data set [1] has as its target DmpR (Pseudomonas putida, UniProt Q7WSM9, C119S/C137S). Put plainly: ([…] Å) and isothermal titration calorimetry. Format: binding. In general terms: In ITC the heat of successive injections is recorded.
The target of data set [2] is T1, DmpR. Nature of the data set: activation of ATPase activity (radiolabelled ATP, TLC); phenol-induced tetramerization (BN-PAGE, SEC-MALS, single-molecule photobleaching). It counts as biochemical.
Data set [3] has as its target DmpR^ΔS, truncated DmpR lacking only the sensory domain (residues 205–563) (Pseudomonas putida KCTC 1452). Put plainly: native gel or EMSA; blue native PAGE of truncated DmpR proteins after incubation with ATP or ATPγS, without phenol. (In general: A gel shift assay detects complexes by their altered migration in electrophoresis.)
For data set [4] the target is unchanged. Nature of the data set: SEC-MALS; SEC combined with MALS of DmpR^ΔS. (SEC sorts molecules by how far they enter the pores of the column.)
The target of data set [5] is eGFP-DmpR^WT, fusion of eGFP and N-terminally 6 × His-tagged DmpR^WT (Pseudomonas putida KCTC 1452). Nature of the data set: single-molecule photobleaching (TIRF); eGFP-DmpR^WT (100 pM) held by biotinylated anti-GFP antibody on streptavidin surface, PBS, with 3 mM phenol; addition of 1 mM ATP changed nothing.
Data set [6] has the same target. Nature of the data set: single-molecule photobleaching (TIRF); eGFP-DmpR^WT (100 pM) held by biotinylated anti-GFP antibody on streptavidin surface, PBS, without phenol; steps of eGFP bleaching counted.
For data set [7] the target is unchanged. Put plainly: single-molecule fluorescence imaging (TIRF); eGFP-DmpR^WT (100 pM, with 1 mM MgCl2, 3 mM phenol, 1 mM ATPγS) held by biotinylated anti-GFP antibody; 1 nM Cy5-labelled σ^54_((1–119))-CPD added; 50 mM HEPES-NaOH pH 7.5, 300 mM NaCl, 5 mM MgCl2.
Data set [8] has the same target. Put plainly: single-molecule fluorescence imaging (TIRF); biotinylated σ^54_((1–119))-CPD immobilised through biotin-streptavidin; eGFP-DmpR^WT added with phenol and ATPγS; bleaching steps of bound eGFP-DmpR counted.
The target of data set [9] is DmpR^ΔD, truncated DmpR derivative (aa 18–481) with C119S/C137S (Pseudomonas putida KCTC 1452). Nature of the data set: not stated; DmpR^ΔD in the presence of phenol (Supplementary Fig. 2a, b).
The target is the same in data set [10]. Put plainly: crystal structure; DmpR^ΔD crystallised with 10 mM phenol and 3 mM AMP-PNP, sitting drop, 4 °C; 3.4 Å.
Data set [11] concerns the molecule itself. Nature of the data set: native gel or EMSA; blue native PAGE (4–16% gradient gel), 20 µM DmpR, 20 min at 25 °C, without phenol.
The target of data set [12] is B1. Nature of the data set: ITC; MicroCal Auto-iTC200, 25 °C; DmpR in the cell, σ^54_((1–119))-CPD (400 µM) as injectant; with phenol and ATPγS. Conditions: both partners purified.

One may read the Kd as the equilibrium constant for the complex coming apart. The low end stands for a tighter complex, the high end for a looser complex. In the case of `Oc1ccccc1` [phenol], the Kd in data set [1] was approximately 12 µM. The “activation of ATPase activity (radiolabelled ATP, TLC); phenol-induced tetrameri” value in data set [2] was “The DmpR^WT and DmpR^ΔD proteins exhibited ATP hydrolysis in the presence of phenol”.
Broadly, the stoichiometry N is a count of units in the complex or per binding partner. In the case of “DmpR^ΔS, truncated DmpR lacking only the sensory domain (residues 205–563) (domain or fragment)”, the stoichiometry N in data set [3] and in data set [4] was 4 each time.
In data set [5], “eGFP-DmpR^WT, fusion of eGFP and N-terminally 6 × His-tagged DmpR^WT (natural protein)” gave a percent of molecules with four-step photobleaching (tetramers) of 34% and a percent of molecules with two-step photobleaching (dimers) of 17%. For the same molecule, in data set [6], the percent of molecules with four-step photobleaching (tetramers) was determined as 19%, the percent of molecules with three-step photobleaching (trimers) worked out at 14% and the percent of molecules with two-step photobleaching (dimers) came out at 32%. The molecule further displayed a stoichiometry N in data set [7] of 4. The molecule also gave a stoichiometry N in data set [8] of 4.
Take “DmpR^ΔD, truncated DmpR derivative (aa 18–481) with C119S/C137S (domain or fragment)”: the stoichiometry N in data set [9] and in data set [10] was 4 each time.
Turning to B1, the “stoichiometry N” value in data set [11] is 2 and 4.
With B2, in [12], the Kd is approximately 4 µM and the “stoichiometry N” value came to 0.86 ± 0.022.
